Measured values: US20240309070A1 (ADMARE THERAPEUTICS SOCIETY, published 2024)

Tests used:
[1] = target: T1, VV B5 monomer protein (Wyeth Vaccinia strain B5 with C-terminal AVI tag and HIS6 tag) (Vaccinia virus, Wyeth strain, UniProt O57254 18-279); assay: BLI (Octet), antibody on AHC sensor, B5 monomer analyte
T1 construct: also called B5 protein; VV B5 protein

[2] = target: T1, VV B5 monomer protein (Wyeth Vaccinia …); assay: ELISA, B5 monomer coated
[3] = target: T2, Western Reserve B5 on cells infected with VVddeGFP Western Reserve virus (Vaccinia virus, Western Reserve strain, UniProt Q01227 18-317); assay: flow cytometry, HT29 cells infected with WR VV
T2 construct: also called VV B5; WR

[4] = target: T3, Copenhagen B5 on cells infected with VVCopenhagen (YFP) virus (Vaccinia virus, Copenhagen strain, UniProt P21115 18-317); assay: flow cytometry, HT29 cells infected with Copenhagen VV
T3 construct: also called VV B5

[5] = target: T2, Western Reserve B5 on cells infected …; assay: flow cytometry, SKOV3 cells infected with WR VV

Binder | Kd [1] | koff [1] | kon [1] | EC50 [2] | EC50 [3] | EC50 [4] | EC50 [5]
A048 parental (antibody, V domains shown, also called A048 rabbit parental antibody; A048 parental anti-B5 hIgG1) VH: QEQLEESGGGLVKPEGSLTLTCTASGFSFSSSYYMCWVRQAPGRGLEWIACIYTSSGSAYYANWAKGRFTISRTSSTTVTLQMTRLTAADTATYFCVRNAVGSSYYLYLWGPGTLVTVSS VL: AQVLTQTPSPVSAAVGGTVTISCQASQSVAGNNYLSWYQQKPGQPPNLLIYSVSTLASGVPSRFKGSGSGTQFTLTISDLECDDAATYYCQGYYNDGIWAFGGGTEVVVK | 9.51 nM | 0.000601 s⁻¹ | 62400 M⁻¹ s⁻¹ | 0.116 nM | 3.51 nM | 1.08 nM | 3.98 nM
A048-H3L1 (antibody, V domains shown) VH: EVQLLESGGGLVQPGGSLRLSCAASGFSFSSSYYMCWVRQAPGKGLEWIACIYTSSGSAYYADSVKGRFTISRDNSKNTLYLQMNSLRAEDTAVYYCVRNAVGSSYYLYLWGQGTLVTVSS VL: DIQMTQSPSTLSASVGDRVTITCQASQSVAGNNYLSWYQQKPGKAPKLLIYSVSTLASGVPSRFSGSGSGTEFTLTISSLQPDDFATYYCQGYYNDGIWAFGQGTKVEIK | 4.37 nM | 0.000468 s⁻¹ | 107000 M⁻¹ s⁻¹ | 0.0854 nM | 0.86 nM | 0.89 nM | 0.94 nM
A048-H1L2 (antibody, V domains shown) VH: EVQLLESGGGLVQPGGSLRLSCAASGFSFSSSYYMCWVRQAPGKGLEWIACIYTSSGSAYYANWAKGRFTISRDNSKNTLYLQMNSLRAEDTAVYYCVRNAVGSSYYLYLWGQGTLVTVSS VL: AQVLTQSPSTLSASVGDRVTITCQASQSVAGNNYLSWYQQKPGKAPKLLIYSVSTLASGVPSRFSGSGSGTEFTLTISSLQPDDFATYYCQGYYNDGIWAFGQGTKVEIK | 9.71 nM | 0.000764 s⁻¹ | 78600 M⁻¹ s⁻¹ | 0.0717 nM | 2.2 nM | 0.77 nM | 0.76 nM
A048-H1L3 (antibody, V domains shown) VH: EVQLLESGGGLVQPGGSLRLSCAASGFSFSSSYYMCWVRQAPGKGLEWIACIYTSSGSAYYANWAKGRFTISRDNSKNTLYLQMNSLRAEDTAVYYCVRNAVGSSYYLYLWGQGTLVTVSS VL: DIQMTQSPSSLSASVGDRVTITCQASQSVAGNNYLSWYQQKPGKVPKLLIYSVSTLASGVPSRFSGSGSGTDFTLTISSLQPEDVATYYCQGYYNDGIWAFGQGTKVEIK | 8.76 nM | 0.000846 s⁻¹ | 96400 M⁻¹ s⁻¹ | 0.0802 nM | 3.48 nM | 1.88 nM | 1.2 nM
A048-H1L4 (antibody, V domains shown) VH: EVQLLESGGGLVQPGGSLRLSCAASGFSFSSSYYMCWVRQAPGKGLEWIACIYTSSGSAYYANWAKGRFTISRDNSKNTLYLQMNSLRAEDTAVYYCVRNAVGSSYYLYLWGQGTLVTVSS VL: AQVLTQSPSSLSASVGDRVTITCQASQSVAGNNYLSWYQQKPGKVPKLLIYSVSTLASGVPSRFSGSGSGTDFTLTISSLQPEDVATYYCQGYYNDGIWAFGQGTKVEIK | 12 nM | 0.000953 s⁻¹ | 79400 M⁻¹ s⁻¹ | 0.102 nM | 0.68 nM | 0.98 nM | 0.44 nM
A048-H3L3 (antibody, V domains shown) VH: EVQLLESGGGLVQPGGSLRLSCAASGFSFSSSYYMCWVRQAPGKGLEWIACIYTSSGSAYYADSVKGRFTISRDNSKNTLYLQMNSLRAEDTAVYYCVRNAVGSSYYLYLWGQGTLVTVSS VL: DIQMTQSPSSLSASVGDRVTITCQASQSVAGNNYLSWYQQKPGKVPKLLIYSVSTLASGVPSRFSGSGSGTDFTLTISSLQPEDVATYYCQGYYNDGIWAFGQGTKVEIK | 7.71 nM | 0.000733 s⁻¹ | 94900 M⁻¹ s⁻¹ | 0.0979 nM | 1.81 nM | 1.03 nM | 0.83 nM
A048-H3L4 (antibody, V domains shown) VH: EVQLLESGGGLVQPGGSLRLSCAASGFSFSSSYYMCWVRQAPGKGLEWIACIYTSSGSAYYADSVKGRFTISRDNSKNTLYLQMNSLRAEDTAVYYCVRNAVGSSYYLYLWGQGTLVTVSS VL: AQVLTQSPSSLSASVGDRVTITCQASQSVAGNNYLSWYQQKPGKVPKLLIYSVSTLASGVPSRFSGSGSGTDFTLTISSLQPEDVATYYCQGYYNDGIWAFGQGTKVEIK | 8.57 nM | 0.000722 s⁻¹ | 84100 M⁻¹ s⁻¹ | 0.106 nM | 3.78 nM | 1.96 nM | 1.28 nM
A048-H2L1 (antibody, V domains shown) VH: EVQLLESGGGLVQPGGSLRLSCAASGFSFSSSYYMCWVRQAPGKGLEWIACIYTSSGSAYYANWAKGRFTISRTSSTTVTLQMNSLRAEDTAVYYCVRNAVGSSYYLYLWGQGTLVTVSS VL: DIQMTQSPSTLSASVGDRVTITCQASQSVAGNNYLSWYQQKPGKAPKLLIYSVSTLASGVPSRFSGSGSGTEFTLTISSLQPDDFATYYCQGYYNDGIWAFGQGTKVEIK | 7.21 nM | 0.000672 s⁻¹ | 93000 M⁻¹ s⁻¹ | 0.0969 nM | 1.37 nM | 1.48 nM | 0.53 nM
A048-H4L1 (antibody, V domains shown) VH: EVQLLESGGGLVQPGGSLRLSCAASGFSFSSSYYMCWVRQAPGKGLEWIACIYTSSGSAYYADSVKGRFTISRTSSTTVTLQMNSLRAEDTAVYYCVRNAVGSSYYLYLWGQGTLVTVSS VL: DIQMTQSPSTLSASVGDRVTITCQASQSVAGNNYLSWYQQKPGKAPKLLIYSVSTLASGVPSRFSGSGSGTEFTLTISSLQPDDFATYYCQGYYNDGIWAFGQGTKVEIK | 6.72 nM | 0.000478 s⁻¹ | 71000 M⁻¹ s⁻¹ | 0.0953 nM | 2.77 nM | 1.34 nM | 0.88 nM
A048-H2L2 (antibody, V domains shown) VH: EVQLLESGGGLVQPGGSLRLSCAASGFSFSSSYYMCWVRQAPGKGLEWIACIYTSSGSAYYANWAKGRFTISRTSSTTVTLQMNSLRAEDTAVYYCVRNAVGSSYYLYLWGQGTLVTVSS VL: AQVLTQSPSTLSASVGDRVTITCQASQSVAGNNYLSWYQQKPGKAPKLLIYSVSTLASGVPSRFSGSGSGTEFTLTISSLQPDDFATYYCQGYYNDGIWAFGQGTKVEIK | 7.91 nM | 0.000698 s⁻¹ | 88100 M⁻¹ s⁻¹ | 0.0914 nM | 1.71 nM | 1.28 nM | 0.8 nM
A048-H2L3 (antibody, V domains shown) VH: EVQLLESGGGLVQPGGSLRLSCAASGFSFSSSYYMCWVRQAPGKGLEWIACIYTSSGSAYYANWAKGRFTISRTSSTTVTLQMNSLRAEDTAVYYCVRNAVGSSYYLYLWGQGTLVTVSS VL: DIQMTQSPSSLSASVGDRVTITCQASQSVAGNNYLSWYQQKPGKVPKLLIYSVSTLASGVPSRFSGSGSGTDFTLTISSLQPEDVATYYCQGYYNDGIWAFGQGTKVEIK | 9.23 nM | 0.000759 s⁻¹ | 82100 M⁻¹ s⁻¹ | 0.0515 nM | 1.73 nM | 0.77 nM | 0.55 nM
A048-H2L4 (antibody, V domains shown) VH: EVQLLESGGGLVQPGGSLRLSCAASGFSFSSSYYMCWVRQAPGKGLEWIACIYTSSGSAYYANWAKGRFTISRTSSTTVTLQMNSLRAEDTAVYYCVRNAVGSSYYLYLWGQGTLVTVSS VL: AQVLTQSPSSLSASVGDRVTITCQASQSVAGNNYLSWYQQKPGKVPKLLIYSVSTLASGVPSRFSGSGSGTDFTLTISSLQPEDVATYYCQGYYNDGIWAFGQGTKVEIK | 6.23 nM | 0.000512 s⁻¹ | 81600 M⁻¹ s⁻¹ | 0.0844 nM | 1.68 nM | 2.85 nM | 0.69 nM
A048-H4L2 (antibody, V domains shown) VH: EVQLLESGGGLVQPGGSLRLSCAASGFSFSSSYYMCWVRQAPGKGLEWIACIYTSSGSAYYADSVKGRFTISRTSSTTVTLQMNSLRAEDTAVYYCVRNAVGSSYYLYLWGQGTLVTVSS VL: AQVLTQSPSTLSASVGDRVTITCQASQSVAGNNYLSWYQQKPGKAPKLLIYSVSTLASGVPSRFSGSGSGTEFTLTISSLQPDDFATYYCQGYYNDGIWAFGQGTKVEIK | 7.69 nM | 0.000481 s⁻¹ | 62400 M⁻¹ s⁻¹ | 0.107 nM | 6.59 nM | 1.78 nM | 0.71 nM
A048-H4L3 (antibody, V domains shown) VH: EVQLLESGGGLVQPGGSLRLSCAASGFSFSSSYYMCWVRQAPGKGLEWIACIYTSSGSAYYADSVKGRFTISRTSSTTVTLQMNSLRAEDTAVYYCVRNAVGSSYYLYLWGQGTLVTVSS VL: DIQMTQSPSSLSASVGDRVTITCQASQSVAGNNYLSWYQQKPGKVPKLLIYSVSTLASGVPSRFSGSGSGTDFTLTISSLQPEDVATYYCQGYYNDGIWAFGQGTKVEIK | 6.31 nM | 0.000476 s⁻¹ | 75200 M⁻¹ s⁻¹ | 0.114 nM | 3.5 nM | 1.12 nM | 1.37 nM
A048-H4L4 (antibody, V domains shown) VH: EVQLLESGGGLVQPGGSLRLSCAASGFSFSSSYYMCWVRQAPGKGLEWIACIYTSSGSAYYADSVKGRFTISRTSSTTVTLQMNSLRAEDTAVYYCVRNAVGSSYYLYLWGQGTLVTVSS VL: AQVLTQSPSSLSASVGDRVTITCQASQSVAGNNYLSWYQQKPGKVPKLLIYSVSTLASGVPSRFSGSGSGTDFTLTISSLQPEDVATYYCQGYYNDGIWAFGQGTKVEIK | 9.6 nM | 0.000549 s⁻¹ | 57000 M⁻¹ s⁻¹ | 0.114 nM | 3.05 nM | 1.32 nM | 2.36 nM
